The record followed here is patent publication US20060166324, “Screening tools for discovery of novel anabolic agents” (USA as represented by the Dept. of Veterans Affairs, published 2006).

Data set [1] relates to Glucocorticoid receptor (Rattus norvegicus). As to the kind of experiment: cell_activity. The settings on record: HepG2 luciferase reporter, dexamethasone.
Data set [2] has as its system Androgen receptor (full length) (Homo sapiens). Put plainly: cell_activity. Particulars: HepG2 luciferase reporter, testosterone. For orientation: In a reporter assay the amount or activity of a reporter protein is the signal.
In data set [3] the target is T1, Androgen receptor DNA-binding domain (Homo sapiens, UniProt P10275 P10275:560-632). As to the kind of experiment: EMSA; strong band, greatly diminished by excess unlabeled probe. Particulars: tags: GST fusion (pGEX 4T-1 hAR2, E. coli BL21); label: 32P. The source says: (§1) In order to more directly test whether the AR bound to sequences with ARE1 and ARE2, binding of a GST-tagged version of recombinant AR DNA-binding domain to radiolabeled probes was examined using electrophoretic mobility shift assays.
T1 sequence (P10275 560-632, one chain of several): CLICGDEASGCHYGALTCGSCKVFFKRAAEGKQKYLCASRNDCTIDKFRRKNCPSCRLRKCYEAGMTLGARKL
A general note: Mobility shift assays separate free from complexed probe on a gel.

The target in data set [4] is T1, Androgen receptor DNA-binding domain. As to the kind of experiment: EMSA; band consistently weaker than SRE; greatly diminished by excess cold SRE. The settings on record: tags: GST fusion (pGEX 4T-1 hAR2, E. coli BL21); label: 32P.
Text: as §1

Data set [5] shares this target. As to the kind of experiment: EMSA; band weaker than SRE; diminished by excess cold SRE. The settings on record: tags: GST fusion (pGEX 4T-1 hAR2, E. coli BL21); label: 32P.
Text: as §1

Turning to “pGL3-32 IGF-1 promoter insert -1429 to -1250 (ARE1 and ARE2)”, the activity (fold induction) came to 5 in data set [1] and 30 in data set [2] (25-fold plateau in FIG. 15). On to “pGL3-13a IGF-1 promoter insert -1370 to -1250 (ARE2)”, for which the activity (fold induction) in data set [1] is 5; in data set [2], over 20. On to “pGL3-22 IGF-1 promoter insert -1508 to -1402 (ARE1)”, for which the activity (fold induction) is under 2 in data set [1] and over 5 in data set [2].

B1: consensus SRE probe (dsDNA)
DNA 1: ATGCATTGGGTACATCTTGTTCACATA
DNA 2: TATGTGAACAAGATGTACCCAATGCAT
As for B1, the binding result in data set [3] is “binds”.

B2: IGF-1 ARE2 probe (dsDNA)
DNA 1: TTGTAGTTGGGCACATAGTAGAGCTCA
DNA 2: TGAGCTCTACTATGTGCCCAACTACAA
As to B2, the binding result in data set [4] is recorded as “binds”.

B3: IGF-1 ARE1 probe (dsDNA)
DNA 1: GACTTGACCATATCTTATTCCTCTTTG
DNA 2: CAAAGAGGAATAAGATATGGTCAAGTC
Regarding B3, the binding result in data set [5] is listed as “binds”.
